The values that follow come from patent US20140079711A1 (Janssen / Centocor, published 2014).

The term Kd denotes a measure of binding affinity in units of concentration. A low value points to a tighter complex.

In test [1] the target is T1, CD147-FL-ECD (Asp19-192 of SEQ ID NO: 1) (human, UniProt Q865R3 19-192 (bovine entry)).
T1 construct: The Asp19 N-terminus is stated for the hexa-His ECD-FL; also called ECD-FL; CD147 ECD
T1 sequence: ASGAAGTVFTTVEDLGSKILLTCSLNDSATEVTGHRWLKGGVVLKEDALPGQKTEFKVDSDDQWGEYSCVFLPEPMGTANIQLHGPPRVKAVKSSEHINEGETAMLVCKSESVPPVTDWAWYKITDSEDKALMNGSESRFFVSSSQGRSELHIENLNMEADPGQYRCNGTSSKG
Kind of test: SPR (Biacore 3000), mAb captured by anti-mouse Fc, CD147-FL-ECD injected. Here is the method: Affinity for the CD147 ECD was also measured by surface plasmon resonance (Biacore). Kinetic studies were performed at 25° C. using a BIACORE 3000 (BIAcore, Inc.) surface plasmon resonance (SPR) instrument. Goat anti-mouse Fcy specific antibody (Jackson Immunoresearch laboratories Prod #115-005-071) was covalently attached to carboxymethyl dextran coated gold surfaces (CM-5 Chip, Biacore). The carboxymethyl groups of dextran were activated with N-Ethyl-N′-(3-Dimethylaminopropyl)carbodiimide (EDC) and N-hydroxysuccinimide (NHS). The Ab was attached at pH 4.5 in 10 mM sodium acetate. Any remaining reactive sites on the surface were blocked by reaction with ethanolamine.
For kinetic binding measurements, anti-CD147 mAbs were captured using an anti-mouse Fcy specific antibody at a flow rate of 30 μL/min. Ab capture was followed by injection of CD147-FL-ECD or the N- or C-domain fragments (as described in Example 1) at concentrations between 75 and 300 nM at 60 μL/min. Association data was collected for 2 min followed by 10 min of dissociation. The surface was regenerated with 15 μL of 100 mM H3PO4, followed by 15 μL of 50 mM NaOH at 30 μL/min. All samples were prepared in D-PBS containing 3 mM EDTA and 0.005% surfactant P20. Data reported is the difference in SPR signal between the flow cell containing the captured antibody and a reference cell without captured antibody. Additional instrumental contributions to the signal were removed by subtraction of the data from the blank injection from the reference-subtracted signal. Data were analyzed by fitting association and dissociation phases at all concentrations using the BIAevaluation software (BIAcore, Inc.).
In general terms: In SPR one partner is held on a chip, and binding of the other changes the refractive index at the surface.

Test [2] concerns the target T2, native human CD147 on MDA-MB-231 breast carcinoma cells (human, UniProt P35613 140-385).
T2 construct: also called EMMPRIN; MDA-MB-231 cells
T2 sequence: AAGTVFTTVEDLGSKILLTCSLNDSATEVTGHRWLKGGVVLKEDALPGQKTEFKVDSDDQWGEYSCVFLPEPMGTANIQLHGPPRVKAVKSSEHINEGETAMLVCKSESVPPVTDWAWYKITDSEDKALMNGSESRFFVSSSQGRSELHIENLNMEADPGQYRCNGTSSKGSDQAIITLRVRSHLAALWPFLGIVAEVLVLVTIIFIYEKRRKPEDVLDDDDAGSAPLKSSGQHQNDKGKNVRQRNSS
As to the kind of experiment: live cell binding assay on MDA-MB-231 cells, HRP-conjugated secondary antibody, OD 490, antibody at 10 ug/ml.

Test [3] has as its target T3, recombinant CD147 ECD-Flag construct (construct #3364, human CD147 ECD1-192) (human, UniProt Q865R3 22-192 (bovine entry)).
T3 sequence: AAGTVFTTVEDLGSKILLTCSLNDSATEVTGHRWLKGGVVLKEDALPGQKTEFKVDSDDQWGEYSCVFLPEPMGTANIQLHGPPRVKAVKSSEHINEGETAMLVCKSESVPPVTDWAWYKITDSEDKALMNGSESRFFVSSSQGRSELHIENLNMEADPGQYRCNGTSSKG
Kind of test: cell-based or functional assay.

B1: 4A5(mIgG1) (antibody, V domains shown)
VH: EVQLQQSGPELVKPGASVKISCKASGYTFTDYYMNWVKQSHGKSLEWIGGINPNNGGTSYNQKFKGKATLTVDKSSSTAYMELRSLTSEDSAVYYCARNDGYRGYAMDYWGQGTSVTVSS
VL: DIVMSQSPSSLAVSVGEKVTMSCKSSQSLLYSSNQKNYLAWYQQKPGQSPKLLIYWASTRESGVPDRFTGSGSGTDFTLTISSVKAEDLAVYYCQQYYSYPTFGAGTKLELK
notes: Murine IgG1 from hybridoma; also called C1177A; 4A5 mAb
B1 returned a Kd in test [1] of 100 nM. Moreover, the binding result in test [2] is listed as “binds”.

B2: 2C8(mIgG1) (antibody, V domains shown)
VH: EMKLEESGGGLVQPGGSMKLSCVASGFTFSNYRMNWVRQSPEKGLEWVAQIRLKSYNYATHYAESVKGRFTISRDDSKSSVYLQMNNLRAEDTGIYYCTPDGSDYWGQGTTLTVSS
VL: DILMTQSPSSMSVSLGDTVSITCHASQGISSSIGWLQQKPGKSFKGLIYHGTNLEDGVPSRFTGSGSGADYSLTISSLESEDFADYYCVQYAQFPYTFGGGTKLEIK
notes: Murine IgG1 from hybridoma; also called C1170A; C1170
Take B2: in test [1], the affinity, expressed as Kd, was 5 nM. The “MMP-1 IC50” value in test [3] turned out to be 20 µg/mL.

B3: 5F6(mIgG1) (antibody, V domains shown)
VH: EMKLEESGGGLVQPGGSMKLSCVASGFTFSNYWMNWVRQSPEKGLEWVAQIRLKSYNYATHYAESVKGRFTISRDDSKSSVYLQMNNLRAEDTGIYYCTPDGSDYWGQGTTLTVSS
VL: SIVMTQTPKFLLVSAGDRVTITCKASQSVSNDVAWYQQKPGQSPKLLIYYASNRYTGVPDRFTGSGYGTDFTFTISTVQAEDLAVYFCQQDYSSPYTFGGGTKLEIK
notes: Murine IgG1 from hybridoma; Two light chain V-regions were found for 5F6; also called C1171A; 5F6 mAb
B3 gave a Kd in test [1] of 4 nM. In other words, the single-digit nanomolar range.
